Here are results for 15 molecules from patent US20260374820 (published 2026).

Read-outs that look alike come from different tables or passages of the source. Bridges are numbered along the chain shown (N, C = ends). Where no end group is shown, it is not given here.

A word on the Kd: it is the concentration at which binding is half-saturated.

Common to all, as to assay: SPR
For orientation: Surface plasmon resonance follows binding to a sensor surface in real time, without labels.

Assay [1] concerns the target T1, human MuSK (human, UniProt O15146).
T1 chain: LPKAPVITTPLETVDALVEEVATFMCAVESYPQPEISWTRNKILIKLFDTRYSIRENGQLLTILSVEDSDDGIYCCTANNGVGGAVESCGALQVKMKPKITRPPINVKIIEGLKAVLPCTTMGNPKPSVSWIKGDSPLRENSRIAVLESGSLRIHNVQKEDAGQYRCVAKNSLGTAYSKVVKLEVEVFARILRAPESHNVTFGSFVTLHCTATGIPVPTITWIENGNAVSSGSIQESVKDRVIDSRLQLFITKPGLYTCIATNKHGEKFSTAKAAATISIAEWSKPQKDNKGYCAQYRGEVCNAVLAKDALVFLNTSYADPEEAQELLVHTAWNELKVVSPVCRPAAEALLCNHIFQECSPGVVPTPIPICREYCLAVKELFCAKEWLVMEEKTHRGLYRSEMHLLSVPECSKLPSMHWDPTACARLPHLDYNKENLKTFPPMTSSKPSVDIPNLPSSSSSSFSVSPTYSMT

In assay [2] the target is T1, human MuSK.
In a further assay the target is T2, mouse MuSK (mouse, UniProt Q61006).
T2 chain: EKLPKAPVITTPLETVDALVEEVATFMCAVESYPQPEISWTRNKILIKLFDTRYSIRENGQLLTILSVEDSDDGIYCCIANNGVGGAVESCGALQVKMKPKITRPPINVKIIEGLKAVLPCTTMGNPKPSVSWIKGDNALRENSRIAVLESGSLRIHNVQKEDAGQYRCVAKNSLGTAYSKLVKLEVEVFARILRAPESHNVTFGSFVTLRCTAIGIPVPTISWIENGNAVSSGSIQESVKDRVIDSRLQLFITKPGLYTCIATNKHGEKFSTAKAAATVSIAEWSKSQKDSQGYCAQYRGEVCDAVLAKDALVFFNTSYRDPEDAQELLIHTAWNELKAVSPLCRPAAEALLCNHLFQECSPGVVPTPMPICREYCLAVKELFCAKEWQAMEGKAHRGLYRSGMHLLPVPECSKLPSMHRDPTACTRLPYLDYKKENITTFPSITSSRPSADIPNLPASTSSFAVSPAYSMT

Assay [3] deals with T1, human MuSK.
In the next assay the target is T3, rat MuSK (rat, UniProt Q62838).
T3 chain: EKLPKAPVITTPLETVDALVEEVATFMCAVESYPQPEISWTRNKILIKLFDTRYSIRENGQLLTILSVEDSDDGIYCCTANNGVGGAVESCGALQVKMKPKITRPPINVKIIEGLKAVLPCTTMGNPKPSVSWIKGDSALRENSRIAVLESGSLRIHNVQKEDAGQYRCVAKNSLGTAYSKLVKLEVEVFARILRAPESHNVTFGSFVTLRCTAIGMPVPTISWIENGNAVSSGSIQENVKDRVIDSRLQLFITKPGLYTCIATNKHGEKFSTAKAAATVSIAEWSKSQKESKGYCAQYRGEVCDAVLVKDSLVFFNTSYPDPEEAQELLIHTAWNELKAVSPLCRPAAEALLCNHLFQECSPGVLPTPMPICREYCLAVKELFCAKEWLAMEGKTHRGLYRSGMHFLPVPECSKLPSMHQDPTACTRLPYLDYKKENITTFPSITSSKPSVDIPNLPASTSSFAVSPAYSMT

{CH2CO}-YFPTNVVSLLKSC (thioether N-13 (inferred); not fully specified (C-terminus)) [MuSK4] yielded a Kd with human MuSK [1] of 250 nM. That is a sub-micromolar value.

B1: MuSK4 PEG3 dimer (peptide)
chain 1: YFPTNVVSLLKSC
chain 2: YFPTNVVSLLKSC
modifications: not fully specified (N-terminus, C-terminus, bridges); cysteine pairing not given here; also: homodimer via PEG3 linker, attachment not given here
The molecule B1 returned a Kd with human MuSK [2] of 6.8 nM.

B2: MuSK1Ac Term PEG11 dimer (protein)
chain 1: YLPEFSWPESFVLFLRQRQRQLGRGAE
chain 2: YLPEFSWPESFVLFLRQRQRQLGRGAE
modifications: also: homodimer via terminal PEG11 linker, terminus not given here, name suffix Ac, meaning not given here
Take B2: in the assay with human MuSK [2], the affinity, expressed as Kd, was 3.6 nM.

B3: MuSK9 PEG11 dimer (peptide)
chain 1: YWYLQPGYVNIVTSYHC
chain 2: YWYLQPGYVNIVTSYHC
modifications: not fully specified (N-terminus, C-terminus, bridges); cysteine pairing not given here; also: homodimer via Bis-Mal-dPEG11 linker, attachment not given here
B3 had a dissociation constant Kd in the assay with human MuSK [2] of 3.9 nM.
The molecule {CH2CO}-YPSYHTNVVASLKRC (thioether N-15 (inferred); not fully specified (C-terminus)) [MuSK7] gave a dissociation constant Kd in the assay with human MuSK [1] of 160 nM.

B4: MuSK7 PEG3 dimer (peptide)
chain 1: YPSYHTNVVASLKRC
chain 2: YPSYHTNVVASLKRC
modifications: not fully specified (N-terminus, C-terminus, bridges); cysteine pairing not given here; also: homodimer via PEG3 linker, attachment not given here
B4 came in with a Kd with human MuSK [2] of 0.62 nM. This lies in the sub-nanomolar range.

B5: MuSK7-pal (peptide)
chain 1: YPSYHTNVVASLKRC
chain 2: YPSYHTNVVASLKRC
modifications: macrocyclic homodimer with palmitoyl group
Turning to B5, the equilibrium dissociation constant (Kd) was found to be 8.8 nM with mouse MuSK, 0.9 nM with human MuSK [3] and 2 nM with rat MuSK.

B6: MuSK1Ac PEG3 dimer (protein)
chain 1: YLPEFSWPESFVLFLRQRQRQLGRGAE
chain 2: YLPEFSWPESFVLFLRQRQRQLGRGAE
modifications: also: homodimer via PEG3 linker, attachment not given here, name suffix Ac, meaning not given here
For the molecule B6, in the assay with human MuSK [2], the affinity, expressed as Kd, was 4.4 nM.

B7: MuSK7 PEG11 dimer (peptide)
chain 1: YPSYHTNVVASLKRC
chain 2: YPSYHTNVVASLKRC
modifications: not fully specified (N-terminus, C-terminus, bridges); cysteine pairing not given here; also: homodimer via Bis-Mal-dPEG11 linker, attachment not given here
On to B7, for which binding with human MuSK [2] was characterised by a dissociation constant (Kd) of 1.3 nM.

B8: MuSK4 PEG11 dimer (peptide)
chain 1: YFPTNVVSLLKSC
chain 2: YFPTNVVSLLKSC
modifications: not fully specified (N-terminus, C-terminus, bridges); cysteine pairing not given here; also: homodimer via Bis-Mal-dPEG11 linker, attachment not given here
For B8, the equilibrium dissociation constant (Kd) with human MuSK [2] worked out at 6.9 nM.

B9: MuSK9 PEG3 dimer (peptide)
chain 1: YWYLQPGYVNIVTSYHC
chain 2: YWYLQPGYVNIVTSYHC
modifications: not fully specified (N-terminus, C-terminus, bridges); cysteine pairing not given here; also: homodimer via PEG3 linker, attachment not given here
In the case of B9, in the assay with human MuSK [2], binding was characterised by a dissociation constant (Kd) of 2.1 nM.

B10: MuSK1Ac Term PEG3 dimer (protein)
chain 1: YLPEFSWPESFVLFLRQRQRQLGRGAE
chain 2: YLPEFSWPESFVLFLRQRQRQLGRGAE
modifications: also: homodimer via terminal PEG3 linker, terminus not given here, name suffix Ac, meaning not given here
B10 had a Kd with human MuSK [2] of 6 nM.

B11: MuSK1 (peptide)
chain: YLPEFSWPESFVLFLRQRQRQLGRGAE
modifications: not fully specified (bridges); also: thioether macrocycle stated, places not given here
In the assay with human MuSK [1], B11 returned a Kd of 2.2 nM.
Molecule YLPEFSWPESFVLFLRQRQRQLGRGAE (also: name suffix Ac, meaning not given here) [MuSK1Ac] yielded a Kd with human MuSK [1] of 1.6 nM. The Kd values of the last two molecules are within 1.5-fold of each other.

B12: MuSK1Ac PEG11 dimer (protein)
chain 1: YLPEFSWPESFVLFLRQRQRQLGRGAE
chain 2: YLPEFSWPESFVLFLRQRQRQLGRGAE
modifications: also: homodimer via PEG11 linker, attachment not given here, name suffix Ac, meaning not given here
As for B12, in the assay with human MuSK [2], binding was put at a Kd of 1.5 nM.
